In this series the test system is Escherichia coli TOP10. Nature of the series: shrunken log2 fold change of peptide-encoding DNA abundance (4.5 h post-induction vs induction); higher = less antimicrobial activity (less host growth inhibition). To be noted: time post-induction: 4.5 h; library: site-saturation at positions 5, 18, 19, 20.
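Also: peptides expressed intracellularly from a pBAD plasmid library in pooled LB shake-flask culture, induced with 0.3% L-arabinose, DNA abundance read by NGS, three biological replicates, DESeq2 with apeglm shrinkage.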

For RRIRSRPPRLPRPRPRPDHFPRP, the “shrunken log2 fold change” value is 0.0963. Under RRIRRRPPRLPRPRPRPIIEPRP stands 0.0476; under RRIRIRPPRLPRPRPRPKVTPRP, -0.386; under RRIRMRPPRLPRPRPRPTCMPRP, 0.262.

With RRIRPRPPRLPRPRPRPAGQPRP, the “shrunken log2 fold change” value was -0.0709.

On to RRIRKRPPRLPRPRPRPCAVPRP, for which the “shrunken log2 fold change” value amounted to 2.99. For RRIRQRPPRLPRPRPRPKGPPRP, the “shrunken log2 fold change” value was -0.201. RRIRWRPPRLPRPRPRPWGFPRP: the “shrunken log2 fold change” value came out at 0.27. As for RRIRCRPPRLPRPRPRPCAIPRP, the figure is 0.651; as for RRIRYRPPRLPRPRPRPFYRPRP, -0.0056; as for RRIRQRPPRLPRPRPRPTGVPRP, 0.216. As for RRIRFRPPRLPRPRPRPGRRPRP, the figure is 0.334; as for RRIRMRPPRLPRPRPRPWCIPRP, -0.315; as for RRIRKRPPRLPRPRPRPNYDPRP, -0.359. RRIRIRPPRLPRPRPRPCLAPRP: the “shrunken log2 fold change” value was -0.693.

On to RRIRRRPPRLPRPRPRPAPEPRP, for which the “shrunken log2 fold change” value was determined as 2.07. With RRIRWRPPRLPRPRPRPDHIPRP, the “shrunken log2 fold change” value is -0.0546. As to RRIRFRPPRLPRPRPRPIWWPRP, the “shrunken log2 fold change” value was 0.617. Consider RRIRDRPPRLPRPRPRPDIAPRP, for which the “shrunken log2 fold change” value turned out to be 0.209. Under RRIRYRPPRLPRPRPRPVAGPRP stands -0.0147; under RRIRARPPRLPRPRPRPQIMPRP, 0.0849; under RRIRHRPPRLPRPRPRPGADPRP, 0.255. As for RRIRSRPPRLPRPRPRPMRKPRP, the figure is 0.853; as for RRIRMRPPRLPRPRPRPKKIPRP, 0.599. On to RRIRMRPPRLPRPRPRPIMEPRP, for which the “shrunken log2 fold change” value is -0.00133. As for RRIRWRPPRLPRPRPRPGPAPRP, the figure is 1.65; as for RRIRQRPPRLPRPRPRPINFPRP, 0.0669; as for RRIRFRPPRLPRPRPRPKDSPRP, -0.335. Under RRIRPRPPRLPRPRPRPLMIPRP stands -0.152. As for RRIRERPPRLPRPRPRPVSIPRP, the figure is -1.57; as for RRIRNRPPRLPRPRPRPYVLPRP, 0.0201; as for RRIRWRPPRLPRPRPRPQAPPRP, -0.164. Regarding RRIRERPPRLPRPRPRPMDKPRP, the “shrunken log2 fold change” value was -0.219. Under RRIRRRPPRLPRPRPRPHKSPRP stands -0.0141; under RRIRNRPPRLPRPRPRPMFYPRP, -0.166. Under RRIRIRPPRLPRPRPRPMEHPRP stands -0.199; under RRIRGRPPRLPRPRPRPCPAPRP, 0.383. For the sequence RRIRKRPPRLPRPRPRPPLIPRP, the “shrunken log2 fold change” value was 0.285. As for RRIRTRPPRLPRPRPRPWRCPRP, the figure is -0.00386; as for RRIRLRPPRLPRPRPRPLSVPRP, -0.0123. Under RRIRFRPPRLPRPRPRPDQHPRP stands -0.34.

As for RRIRWRPPRLPRPRPRPGSFPRP, the “shrunken log2 fold change” value came out at 0.0155. In the case of RRIRRRPPRLPRPRPRPFADPRP, the “shrunken log2 fold change” value was -0.0461.

Consider RRIRTRPPRLPRPRPRPIVVPRP, for which the “shrunken log2 fold change” value is -9.82e-05. With RRIRGRPPRLPRPRPRPMYWPRP, the “shrunken log2 fold change” value was -0.0689.

As to RRIRPRPPRLPRPRPRPTGRPRP, the “shrunken log2 fold change” value came to 0.459. As for RRIRVRPPRLPRPRPRPYVLPRP, the figure is -1.12. Regarding RRIRWRPPRLPRPRPRPYITPRP, the “shrunken log2 fold change” value is -0.13.

Regarding RRIRTRPPRLPRPRPRPTRNPRP, the “shrunken log2 fold change” value is -0.0423. As for RRIRDRPPRLPRPRPRPMHGPRP, the figure is -0.123; as for RRIRKRPPRLPRPRPRPNSQPRP, 0.27.

In the case of RRIRQRPPRLPRPRPRPGGPPRP, the “shrunken log2 fold change” value stood at 0.0535.

For the sequence RRIRARPPRLPRPRPRPELKPRP, the “shrunken log2 fold change” value stood at 0.488. Consider RRIRNRPPRLPRPRPRPFPKPRP, for which the “shrunken log2 fold change” value came to 0.0299.

RRIRKRPPRLPRPRPRPGLTPRP: the “shrunken log2 fold change” value amounted to 1.08. For the sequence RRIRIRPPRLPRPRPRPSMHPRP, the “shrunken log2 fold change” value is -0.511.

In the case of RRIRSRPPRLPRPRPRPKTHPRP, the “shrunken log2 fold change” value was -0.0477. Under RRIRQRPPRLPRPRPRPNQDPRP stands -0.0715; under RRIRIRPPRLPRPRPRPNGAPRP, 0.0157. As for RRIRWRPPRLPRPRPRPPGAPRP, the figure is 0.904; as for RRIRVRPPRLPRPRPRPIVMPRP, -0.107; as for RRIRKRPPRLPRPRPRPMFQPRP, -0.0168. For RRIRFRPPRLPRPRPRPTYDPRP, the “shrunken log2 fold change” value is -0.604. On to RRIRMRPPRLPRPRPRPGMDPRP, for which the “shrunken log2 fold change” value is 0.32. As to RRIRMRPPRLPRPRPRPWAFPRP, the “shrunken log2 fold change” value was -0.121.

Regarding RRIRDRPPRLPRPRPRPAIYPRP, the “shrunken log2 fold change” value came to 0.00069.

For RRIRVRPPRLPRPRPRPIEGPRP, the “shrunken log2 fold change” value was -0.0117. RRIRPRPPRLPRPRPRPDVDPRP: the “shrunken log2 fold change” value is 0.108. Under RRIRSRPPRLPRPRPRPIGGPRP stands -0.0412. Regarding RRIRARPPRLPRPRPRPKCGPRP, the “shrunken log2 fold change” value turned out to be 0.432. Under RRIRCRPPRLPRPRPRPMPVPRP stands 0.161; under RRIRHRPPRLPRPRPRPAVEPRP, -0.0419; under RRIRWRPPRLPRPRPRPPNFPRP, 0.015. Under RRIRYRPPRLPRPRPRPWPPPRP stands 0.194; under RRIRKRPPRLPRPRPRPMLDPRP, 0.16. As for RRIRWRPPRLPRPRPRPGRGPRP, the figure is 0.643; as for RRIRPRPPRLPRPRPRPIWLPRP, -0.132; as for RRIRARPPRLPRPRPRPCHAPRP, 0.284. Turning to RRIRHRPPRLPRPRPRPVERPRP, the “shrunken log2 fold change” value was -0.00973. Under RRIRGRPPRLPRPRPRPYNWPRP stands -0.225; under RRIRERPPRLPRPRPRPVAIPRP, -0.121; under RRIRPRPPRLPRPRPRPWADPRP, 0.0868. In the case of RRIRPRPPRLPRPRPRPYSLPRP, the “shrunken log2 fold change” value was -0.139. For RRIRWRPPRLPRPRPRPGVSPRP, the “shrunken log2 fold change” value was found to be 0.34. As for RRIRYRPPRLPRPRPRPRFLPRP, the figure is -0.42. Under RRIRVRPPRLPRPRPRPDYLPRP stands -0.222; under RRIRVRPPRLPRPRPRPEPGPRP, 0.547; under RRIRDRPPRLPRPRPRPFLQPRP, -0.091. Turning to RRIRVRPPRLPRPRPRPCMPPRP, the “shrunken log2 fold change” value is 0.112.

On to RRIRHRPPRLPRPRPRPKKTPRP, for which the “shrunken log2 fold change” value amounted to 0.0065. Under RRIRQRPPRLPRPRPRPPYYPRP stands -0.829. As for RRIRSRPPRLPRPRPRPQVPPRP, the figure is 0.299; as for RRIRVRPPRLPRPRPRPHTGPRP, -0.495. As for RRIRSRPPRLPRPRPRPCPYPRP, the “shrunken log2 fold change” value turned out to be 0.0125.

RRIRPRPPRLPRPRPRPMTDPRP: the “shrunken log2 fold change” value was determined as 0.0653. Under RRIRMRPPRLPRPRPRPPHYPRP stands 0.728; under RRIRDRPPRLPRPRPRPMRFPRP, 0.21; under RRIRYRPPRLPRPRPRPYLKPRP, -0.478. Under RRIRYRPPRLPRPRPRPAIRPRP stands -0.0189. Under RRIRSRPPRLPRPRPRPNMTPRP stands -0.247; under RRIRTRPPRLPRPRPRPMFDPRP, -0.0585.

As for RRIRIRPPRLPRPRPRPTCMPRP, the “shrunken log2 fold change” value is -0.059. Under RRIRRRPPRLPRPRPRPKPQPRP stands 0.403; under RRIRWRPPRLPRPRPRPGIAPRP, 0.411; under RRIRVRPPRLPRPRPRPVNGPRP, 0.158. Under RRIRHRPPRLPRPRPRPCWQPRP stands -0.065. As to RRIRARPPRLPRPRPRPQHQPRP, the “shrunken log2 fold change” value came to 0.698. Regarding RRIRYRPPRLPRPRPRPAEAPRP, the “shrunken log2 fold change” value stood at 0.0062. As for RRIRTRPPRLPRPRPRPHMRPRP, the figure is 0.161; as for RRIRHRPPRLPRPRPRPMFAPRP, -0.245; as for RRIRMRPPRLPRPRPRPQSLPRP, -0.0682. As for RRIRGRPPRLPRPRPRPQDFPRP, the figure is 0.178; as for RRIRHRPPRLPRPRPRPMWHPRP, -0.152; as for RRIRYRPPRLPRPRPRPSFGPRP, -0.522.

Regarding RRIRQRPPRLPRPRPRPASDPRP, the “shrunken log2 fold change” value worked out at 0.197. As for RRIRVRPPRLPRPRPRPRGTPRP, the figure is -0.164; as for RRIRRRPPRLPRPRPRPKMDPRP, -0.0711. Under RRIRCRPPRLPRPRPRPALVPRP stands 0.281; under RRIRFRPPRLPRPRPRPYDVPRP, -0.185. In the case of RRIRCRPPRLPRPRPRPQSDPRP, the “shrunken log2 fold change” value was -0.69. On to RRIRGRPPRLPRPRPRPNTCPRP, for which the “shrunken log2 fold change” value amounted to 0.103. For the sequence RRIRARPPRLPRPRPRPCKCPRP, the “shrunken log2 fold change” value was -0.0835. As for RRIRLRPPRLPRPRPRPWNWPRP, the figure is 0.0524.

With RRIRPRPPRLPRPRPRPGWSPRP, the “shrunken log2 fold change” value amounted to 0.0867.

On to RRIRYRPPRLPRPRPRPWQAPRP, for which the “shrunken log2 fold change” value was -0.0293.

These data come from the supplement of paper PMC9112550, “Optimization of the antimicrobial peptide Bac7 by deep mutational scanning” (BMC Biology, 2022).
